Measurements: the supplement of paper PMC10899765
± gives the standard deviation of the averaged measurements.

Legend:
Conditions in all cases: 20 nM; 72 h
MCF10A [1] = assay: percent viability (nuclei count relative to siNT); higher = more viable cells
Description: (§1)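 After 72 h, cells were fixed and stained with Hoechst and anti-fibrillarin, and nucleoli per nucleus were counted with CellProfiler. Values are plate-adjusted percent effect for the one-nucleolus and 5+ nucleoli phenotypes, normalised to siNT (0%) and to the positive controls siNOL11 or siKIF11 (100%), as the mean of biological triplicates. Percent viability is the nuclei count relative to siNT.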

MCF10A [2] = assay: 5+ nucleoli phenotype percent effect (relative to siNT 0% and siKIF11 100%); higher = more cells with five or more nucleoli
Description: as §1

MCF10A [3] = assay: one-nucleolus phenotype percent effect (relative to siNT 0% and siNOL11 100%); higher = more cells with one nucleolus (ribosome biogenesis inhibition)
Description: as §1

## CCAGUCCUGUGCCUGCCGCCU [hsa-miR-1910]
MCF10A [1]
  percent viability: 100%
MCF10A [2]
  5+ nucleoli phenotype percent effect: 6.81%
MCF10A [3]
  one-nucleolus phenotype percent effect: 3.9%

## GAUCCAUCUCUGCCUGUAUUGGC [hsa-miR-7151-5p]
MCF10A [1]
  percent viability: 80.6%
MCF10A [2]
  5+ nucleoli phenotype percent effect: -8.39%
MCF10A [3]
  one-nucleolus phenotype percent effect: 5.88%

## CCUGGGGACAGGGGAUUGGGGCAG [hsa-miR-8089]
MCF10A [1]
  percent viability: 93.2%
MCF10A [2]
  5+ nucleoli phenotype percent effect: 40.1%
MCF10A [3]
  one-nucleolus phenotype percent effect: -19.7%

## CUGGGGAGAUCCUCGAGGUUGG [hsa-miR-3150a-3p]
MCF10A [1]
  percent viability: 18.9%
MCF10A [2]
  5+ nucleoli phenotype percent effect: -16.4%
MCF10A [3]
  one-nucleolus phenotype percent effect: 23.4%

## AUAUACAGGGGGAGACUCUUAU [hsa-miR-1185-1-3p]
MCF10A [1]
  percent viability: 20.3%
MCF10A [2]
  5+ nucleoli phenotype percent effect: -12.6%
MCF10A [3]
  one-nucleolus phenotype percent effect: 9.76%

## CCAAAACUGCAGUUACUUUUGC [hsa-miR-548o-3p]
MCF10A [1]
  percent viability: 99.8%
MCF10A [2]
  5+ nucleoli phenotype percent effect: 27.5%
MCF10A [3]
  one-nucleolus phenotype percent effect: -18%

## UAGGUUAUCCGUGUUGCCUUCG [hsa-miR-154-5p]
MCF10A [1]
  percent viability: 32.9%
MCF10A [2]
  5+ nucleoli phenotype percent effect: -28.7%
MCF10A [3]
  one-nucleolus phenotype percent effect: 34.9%

## UCGCAGACAGGGACACAUGGAGA [hsa-miR-6767-5p]
MCF10A [1]
  percent viability: 39%
MCF10A [2]
  5+ nucleoli phenotype percent effect: 0.353%
MCF10A [3]
  one-nucleolus phenotype percent effect: -5.76%

## AAAGCUGGGUUGAGAAGG [hsa-miR-320e]
MCF10A [1]
  percent viability: 28.6%
MCF10A [2]
  5+ nucleoli phenotype percent effect: 2.27%
MCF10A [3]
  one-nucleolus phenotype percent effect: 3.44%

## AUCGUGCAUCCCUUUAGAGUGU [hsa-miR-517b-3p]
MCF10A [1]
  percent viability: 35.2%
MCF10A [2]
  5+ nucleoli phenotype percent effect: -20.3%
MCF10A [3]
  one-nucleolus phenotype percent effect: 14.6%

## AGGCCAUCAGCAGUCCAAUGAA [hsa-miR-4529-5p]
MCF10A [1]
  percent viability: 52.1%
MCF10A [2]
  5+ nucleoli phenotype percent effect: 9.36%
MCF10A [3]
  one-nucleolus phenotype percent effect: 2.62%

## UAGGUGGCAGAGGAGGGACUUCA [hsa-miR-6865-5p]
MCF10A [1]
  percent viability: 11.7%
MCF10A [2]
  5+ nucleoli phenotype percent effect: -3.22%
MCF10A [3]
  one-nucleolus phenotype percent effect: 20.5%

## CAAAACCGCGAUUACUCUUGCA [hsa-miR-548ay-3p]
MCF10A [1]
  percent viability: 25.8%
MCF10A [2]
  5+ nucleoli phenotype percent effect: -63.9%
MCF10A [3]
  one-nucleolus phenotype percent effect: 52%

## UGGACGGAGAACUGAUAAGGGU [hsa-miR-184]
MCF10A [1]
  percent viability: 43%
MCF10A [2]
  5+ nucleoli phenotype percent effect: 80.3%
MCF10A [3]
  one-nucleolus phenotype percent effect: -17.7%

## AGGAGGUGGUACUAGGGGCCAGC [hsa-miR-6851-5p]
MCF10A [1]
  percent viability: 15.2%
MCF10A [2]
  5+ nucleoli phenotype percent effect: -20.3%
MCF10A [3]
  one-nucleolus phenotype percent effect: 31.8%

## CUCCUGAGCCAUUCUGAGCCUC [hsa-miR-1200]
MCF10A [1]
  percent viability: 58%
MCF10A [2]
  5+ nucleoli phenotype percent effect: -30.8%
MCF10A [3]
  one-nucleolus phenotype percent effect: 27.4%

## UGCCCCACCUGCUGACCACCCUC [hsa-miR-4758-3p]
MCF10A [1]
  percent viability: 76.4%
MCF10A [2]
  5+ nucleoli phenotype percent effect: 31.8%
MCF10A [3]
  one-nucleolus phenotype percent effect: -20.9%

## CCGCCUGAGCUAGCUGUGG [hsa-miR-6078]
MCF10A [1]
  percent viability: 89.3%
MCF10A [2]
  5+ nucleoli phenotype percent effect: 38.1%
MCF10A [3]
  one-nucleolus phenotype percent effect: -22.1%

## GUGCAUUGUAGUUGCAUUGCA [hsa-miR-33a-5p]
MCF10A [1]
  percent viability: 46%
MCF10A [2]
  5+ nucleoli phenotype percent effect: -0.156%
MCF10A [3]
  one-nucleolus phenotype percent effect: -0.977%

## AGCUCUAGAAAGAUUGUUGACC [hsa-miR-6502-5p]
MCF10A [1]
  percent viability: 93.5%
MCF10A [2]
  5+ nucleoli phenotype percent effect: 66.5%
MCF10A [3]
  one-nucleolus phenotype percent effect: -17.4%

## UGGCUGCUUCCCUUGGUCUCCAG [hsa-miR-6762-3p]
MCF10A [1]
  percent viability: 20.3%
MCF10A [2]
  5+ nucleoli phenotype percent effect: -10.9%
MCF10A [3]
  one-nucleolus phenotype percent effect: 44%

## UGUUCCUCUGUCUCCCAGAC [hsa-miR-4326]
MCF10A [1]
  percent viability: 32.4%
MCF10A [2]
  5+ nucleoli phenotype percent effect: -25.5%
MCF10A [3]
  one-nucleolus phenotype percent effect: 18.8%

## AUUGGGGACAUUUUGCAUUCAU [hsa-miR-450a-3p]
MCF10A [1]
  percent viability: 31.6 ± 3.4%
MCF10A [2]
  5+ nucleoli phenotype percent effect: -17.5 ± 0.61%
MCF10A [3]
  one-nucleolus phenotype percent effect: 7.56 ± 4.4%

## AUCGCUUUACCAUUCAUGUU [hsa-miR-4790-5p]
MCF10A [1]
  percent viability: 34.2%
MCF10A [2]
  5+ nucleoli phenotype percent effect: -9.48%
MCF10A [3]
  one-nucleolus phenotype percent effect: 16.1%

## UGCAACUUACCUGAGUCAUUGA [hsa-miR-891b]
MCF10A [1]
  percent viability: 41.4%
MCF10A [2]
  5+ nucleoli phenotype percent effect: -7.44%
MCF10A [3]
  one-nucleolus phenotype percent effect: 1.72%

## UAAUUUUAUGUAUAAGCUAGU [hsa-miR-590-3p]
MCF10A [1]
  percent viability: 121%
MCF10A [2]
  5+ nucleoli phenotype percent effect: 34.3%
MCF10A [3]
  one-nucleolus phenotype percent effect: -23.9%

## UUACACAGCUGGACAGAGGCA [hsa-miR-4672]
MCF10A [1]
  percent viability: 17.6%
MCF10A [2]
  5+ nucleoli phenotype percent effect: -34%
MCF10A [3]
  one-nucleolus phenotype percent effect: 38.5%

## UUGGAAUAGGGGAUAUCUCAGC [hsa-miR-6505-5p]
MCF10A [1]
  percent viability: 36.9%
MCF10A [2]
  5+ nucleoli phenotype percent effect: -46.6%
MCF10A [3]
  one-nucleolus phenotype percent effect: 29.1%

## CAGGCAGGGAGGUGGGACCAUG [hsa-miR-6808-5p]
MCF10A [1]
  percent viability: 21.7%
MCF10A [2]
  5+ nucleoli phenotype percent effect: -14.6%
MCF10A [3]
  one-nucleolus phenotype percent effect: 28.6%

## UGCCCUUCUCUCCUCCUGCCU [hsa-miR-6886-3p]
MCF10A [1]
  percent viability: 35.2%
MCF10A [2]
  5+ nucleoli phenotype percent effect: -2.46%
MCF10A [3]
  one-nucleolus phenotype percent effect: -6.37%

## CAGUGCAAUGUUUUCCUU [hsa-miR-4295]
MCF10A [1]
  percent viability: 78.5%
MCF10A [2]
  5+ nucleoli phenotype percent effect: 97.9%
MCF10A [3]
  one-nucleolus phenotype percent effect: -33%

## ACUGGGGGCUUUCGGGCUCUGCGU [hsa-miR-637]
MCF10A [1]
  percent viability: 22.7%
MCF10A [2]
  5+ nucleoli phenotype percent effect: -19.4%
MCF10A [3]
  one-nucleolus phenotype percent effect: 50.5%

## UCCAGUGCCCUCCUCUCC [hsa-miR-1825]
MCF10A [1]
  percent viability: 70.3%
MCF10A [2]
  5+ nucleoli phenotype percent effect: -2.13%
MCF10A [3]
  one-nucleolus phenotype percent effect: -8.72%

## AGCCCGCCCCAGCCGAGGUUCU [hsa-miR-4707-3p]
MCF10A [1]
  percent viability: 42.9%
MCF10A [2]
  5+ nucleoli phenotype percent effect: -25.2%
MCF10A [3]
  one-nucleolus phenotype percent effect: 19.7%

## ACCCAGGUUCCCUCUGGCCGCA [hsa-miR-4726-3p]
MCF10A [1]
  percent viability: 23.9%
MCF10A [2]
  5+ nucleoli phenotype percent effect: -34.6%
MCF10A [3]
  one-nucleolus phenotype percent effect: 51.3%

## UACAGAUGCAGAUUCUCUGACUUC [hsa-miR-5683]
MCF10A [1]
  percent viability: 40.9%
MCF10A [2]
  5+ nucleoli phenotype percent effect: 8.12%
MCF10A [3]
  one-nucleolus phenotype percent effect: 15.3%

## GCAGAUCAGGACUGUAACUCACC [hsa-miR-1288-5p]
MCF10A [1]
  percent viability: 48.5%
MCF10A [2]
  5+ nucleoli phenotype percent effect: 31.1%
MCF10A [3]
  one-nucleolus phenotype percent effect: -14.5%

## ACUGUUGCUAAUAUGCAACUCU [hsa-miR-367-5p]
MCF10A [1]
  percent viability: 102%
MCF10A [2]
  5+ nucleoli phenotype percent effect: 4.48%
MCF10A [3]
  one-nucleolus phenotype percent effect: -5.32%

## UCCGAACUCUCCAUUCCUCUGC [hsa-miR-6716-3p]
MCF10A [1]
  percent viability: 166%
MCF10A [2]
  5+ nucleoli phenotype percent effect: 35.3%
MCF10A [3]
  one-nucleolus phenotype percent effect: -19.3%

## UGGGCUGAGGGCAGGAGGCCUGU [hsa-miR-4656]
MCF10A [1]
  percent viability: 9.2%
MCF10A [2]
  5+ nucleoli phenotype percent effect: 20.8%
MCF10A [3]
  one-nucleolus phenotype percent effect: 22.2%

## UGUGAUAUCAUGGUUCCUGGGA [hsa-miR-3689b-5p]
MCF10A [1]
  percent viability: 23.6%
MCF10A [2]
  5+ nucleoli phenotype percent effect: -25.9%
MCF10A [3]
  one-nucleolus phenotype percent effect: 19%

## UAACAAACACCUGUAAAACAGC [hsa-miR-5688]
MCF10A [1]
  percent viability: 101%
MCF10A [2]
  5+ nucleoli phenotype percent effect: 22.5%
MCF10A [3]
  one-nucleolus phenotype percent effect: -7.14%

## UGGCCAAAAAGCAGGCAGAGA [hsa-miR-3926]
MCF10A [1]
  percent viability: 31.6%
MCF10A [2]
  5+ nucleoli phenotype percent effect: 0.491%
MCF10A [3]
  one-nucleolus phenotype percent effect: 11.5%

## UUGUGGGUGGGCAGAAGUCUGU [hsa-miR-6759-5p]
MCF10A [1]
  percent viability: 21.7%
MCF10A [2]
  5+ nucleoli phenotype percent effect: -37.5%
MCF10A [3]
  one-nucleolus phenotype percent effect: 49.5%

## UGGGGCGGAGCUUCCGGAGGCC [hsa-miR-3180-3p]
MCF10A [1]
  percent viability: 12.9%
MCF10A [2]
  5+ nucleoli phenotype percent effect: 0.481%
MCF10A [3]
  one-nucleolus phenotype percent effect: 8%

## AGCGAGGUUGCCCUUUGUAUAU [hsa-miR-381-5p]
MCF10A [1]
  percent viability: 52.5%
MCF10A [2]
  5+ nucleoli phenotype percent effect: 0.715%
MCF10A [3]
  one-nucleolus phenotype percent effect: -12.7%

## UAUCAUGGAGUUGGUAAAGCAC [hsa-miR-2681-3p]
MCF10A [1]
  percent viability: 62.4%
MCF10A [2]
  5+ nucleoli phenotype percent effect: 14.2%
MCF10A [3]
  one-nucleolus phenotype percent effect: -14.9%

## AGUAGAGAGGAAAAGUUAGGGUC [hsa-miR-6832-5p]
MCF10A [1]
  percent viability: 64.7%
MCF10A [2]
  5+ nucleoli phenotype percent effect: 20.4%
MCF10A [3]
  one-nucleolus phenotype percent effect: -10.8%
